Laboratory results published in paper doi:10.1101/2022.07.04.498665 (bioRxiv, 2022).
“And” between values parts separate entries of the source, which are not always exact repeats. Identical values can stand only once.

How the values were obtained:
SAXS = target: the molecule itself; experiment: SAXS
SEC = target: the molecule itself; experiment: SEC

B1: Mu8.1 (natural protein)
chain: GENSDNLTHCRLFEFRLCLLECMSLTLDHCYARCTTVITQIHGSDTNRFDCTIFKTCYYRCYVLGKTEDHCWKGTATSVTGDVGDLEFC
- stoichiometry N (SAXS): 4 and 6
- stoichiometry N (SEC): 2
